# Measured values reported in US20100202967A1 (BRACCO IMAGING, published 2010).
# Bridge positions count the residues as written; N and C are the ends. Square brackets hold non-standard residues; d marks the D form. Ends that are not written are not given here. Phe(3,4-F2) = N[C@@H](Cc1ccc(F)c(F)c1)C(=O)O; Thf2ca = tetrahydrofuran-2-carboxylic acid; Phe(4-F) = N[C@@H](Cc1ccc(F)cc1)C(=O)O; Hyp = O=C(O)[C@@H]1C[C@@H](O)CN1; Cha = N[C@@H](CC1CCCCC1)C(=O)O; CF5 = 5-carboxyfluorescein
# T1: fibrin
# T1 chain 1: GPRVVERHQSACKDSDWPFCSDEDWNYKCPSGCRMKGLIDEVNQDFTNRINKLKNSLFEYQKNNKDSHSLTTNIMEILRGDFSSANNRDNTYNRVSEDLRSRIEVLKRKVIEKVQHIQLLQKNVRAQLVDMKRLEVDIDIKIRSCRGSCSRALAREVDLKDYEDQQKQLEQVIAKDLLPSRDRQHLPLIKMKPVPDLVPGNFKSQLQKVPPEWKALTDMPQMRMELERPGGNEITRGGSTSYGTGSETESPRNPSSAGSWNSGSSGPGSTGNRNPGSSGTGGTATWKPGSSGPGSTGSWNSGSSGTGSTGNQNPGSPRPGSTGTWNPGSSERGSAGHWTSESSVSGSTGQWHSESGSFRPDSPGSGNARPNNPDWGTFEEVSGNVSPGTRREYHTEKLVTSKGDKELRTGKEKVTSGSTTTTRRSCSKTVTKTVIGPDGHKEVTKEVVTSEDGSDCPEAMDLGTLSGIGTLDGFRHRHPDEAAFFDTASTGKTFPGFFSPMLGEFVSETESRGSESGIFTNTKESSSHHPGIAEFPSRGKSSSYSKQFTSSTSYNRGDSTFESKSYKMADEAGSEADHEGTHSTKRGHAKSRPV
# T1 chain 2: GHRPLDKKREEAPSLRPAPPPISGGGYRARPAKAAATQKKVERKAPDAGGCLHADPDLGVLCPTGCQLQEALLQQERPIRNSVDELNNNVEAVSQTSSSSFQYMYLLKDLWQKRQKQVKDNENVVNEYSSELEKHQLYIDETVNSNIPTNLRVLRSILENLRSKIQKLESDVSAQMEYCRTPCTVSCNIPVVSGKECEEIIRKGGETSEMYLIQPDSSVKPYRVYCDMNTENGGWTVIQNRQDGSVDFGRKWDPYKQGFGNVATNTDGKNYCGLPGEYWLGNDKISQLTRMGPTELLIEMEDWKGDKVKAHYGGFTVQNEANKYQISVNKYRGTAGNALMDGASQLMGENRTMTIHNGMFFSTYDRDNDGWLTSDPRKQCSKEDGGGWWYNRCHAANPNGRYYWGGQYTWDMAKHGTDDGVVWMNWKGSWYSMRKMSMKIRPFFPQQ
# T1 chain 3: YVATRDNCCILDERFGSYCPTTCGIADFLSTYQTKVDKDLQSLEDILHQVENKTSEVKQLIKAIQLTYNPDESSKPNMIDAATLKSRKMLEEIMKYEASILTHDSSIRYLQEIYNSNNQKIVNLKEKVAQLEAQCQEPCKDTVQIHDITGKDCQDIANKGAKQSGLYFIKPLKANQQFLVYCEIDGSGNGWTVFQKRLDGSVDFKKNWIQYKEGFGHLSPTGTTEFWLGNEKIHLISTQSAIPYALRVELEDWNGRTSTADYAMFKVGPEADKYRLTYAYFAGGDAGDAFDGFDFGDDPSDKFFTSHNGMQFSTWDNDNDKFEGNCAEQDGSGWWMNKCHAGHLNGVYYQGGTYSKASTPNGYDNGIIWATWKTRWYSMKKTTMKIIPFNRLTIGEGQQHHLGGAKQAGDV
# B1: Ac-RWQPC*PAESWTFC*WDPGGGK(CF5)-NH2 (peptide)
# peptide: RWQPCPAESWTFCWDPGGGK(CF5)-NH2
# modifications: disulfide 5-13; not fully specified (N-terminus); printed as RWQPC*PAESWTFC*WDPGGGK(CF5)-NH2
# B2: Ac-RRGGWQPC*-Hypt4-WESWTFC*WDPGGGK-NH2 (peptide)
# peptide: Ac-RRGGWQPC[Hyp]WESWTFCWDPGGGK-NH2
# modifications: disulfide 8-16
# SMILES: CC(=O)N[C@@H](CCCNC(=N)N)C(=O)N[C@@H](CCCNC(=N)N)C(=O)NCC(=O)NCC(=O)N[C@@H](Cc1c[nH]c2ccccc12)C(=O)N[C@@H](CCC(N)=O)C(=O)N1CCC[C@H]1C(=O)N[C@H]1CSSC[C@@H](C(=O)N[C@@H](Cc2c[nH]c3ccccc23)C(=O)N[C@@H](CC(=O)O)C(=O)N2CCC[C@H]2C(=O)NCC(=O)NCC(=O)NCC(=O)N[C@@H](CCCCN)C(N)=O)NC(=O)[C@H](Cc2ccccc2)NC(=O)[C@H]([C@@H](C)O)NC(=O)[C@H](Cc2c[nH]c3ccccc23)NC(=O)[C@H](CO)NC(=O)[C@H](CCC(=O)O)NC(=O)[C@H](Cc2c[nH]c3ccccc23)NC(=O)[C@@H]2C[C@@H](O)CN2C1=O
# How the values were obtained:
# fibrin [1] = test: fluorescence polarization, direct binding (n = 2)
# fibrin [2] = test: competition fluorescence polarization assay; reference of Table 6
# fibrin [3] = test: competition fluorescence polarization assay (n = 2)
# fibrin [4] = target: T1, fibrin; test: as above
binder,measurement,setting,value
Ac-WQPCPWESWTFCWDPGGGK(CF5)-NH2 (disulfide 4-12) [Ac-WQPC*PWESWTFC*WDPGGGK(CF5)-NH2],Kd,fibrin [1],390 nM
H-RWQPCPWESWTFCWDPGGGK(CF5)-NH2 (disulfide 5-13) [RWQPC*PWESWTFC*WDPGGGK(CF5)-NH2],Kd,fibrin [1],110 nM
Thf2ca-WQPCPWESWTFCWDPGGGK(CF5)-NH2 (disulfide 4-12) [Thf2ca-WQPC*PWESWTFC*WDPGGGK(CF5)-NH2],Kd,fibrin [1],1210 nM
H-GWQPCPAESWTFCWDPGGGK(CF5)-NH2 (disulfide 5-13) [GWQPC*PAESWTFC*WDPGGGK(CF5)-NH2],Kd,fibrin [1],240 nM
Ac-GWQPCPAESWTFCWDPGGGK(CF5)-NH2 (disulfide 5-13) [Ac-GWQPC*PAESWTFC*WDPGGGK(CF5)-NH2],Kd,fibrin [1],240 nM
Ac-RWQPCPWESWTFCWDPGGGK(CF5)-NH2 (disulfide 5-13) [Ac-RWQPC*PWESWTFC*WDPGGGK(CF5)-NH2],Kd,fibrin [1],110 nM
B1,Kd,fibrin [1],210 nM
Ac-RGWQPCPAESWT[Cha]CWDPGGGK(CF5)-NH2 (disulfide 6-14) [Ac-RGWQPC*PAESWT-Cha-C*WDPGGGK(CF5)-NH2],Kd,fibrin [1],100 nM
H-RGWQPCPAESWT[Cha]CWDPGGGK(CF5)-NH2 (disulfide 6-14) [RGWQPC*PAESWT-Cha-C*WDPGGGK(CF5)-NH2],Kd,fibrin [1],50 nM
H-RWQPCPAESWTFCWDPGGGK(CF5)-NH2 (disulfide 5-13) [RWQPC*PAESWTFC*WDPGGGK(CF5)-NH2],Kd,fibrin [1],60 nM
WQPCPWESWTFCWDPGGGK (N-terminal acetyl; disulfide Cys4-Cys12 (C*); C-terminal amide) [Ac-WQPC*PWESWTFC*WDPGGGK-NH2],Rel IC50 (ratio (reference peptide itself)),fibrin [2],1
Ac-WQPCPWESWT[Cha]CWDPGGGK(CF5)-NH2 (disulfide 4-12) [Ac-WQPC*PWESWT-Cha-C*WDPGGGK(CF5)-NH2],Kd,fibrin [1],200 nM
Ac-GWQPCPWESWTFCWDPGGGK-NH2 (disulfide 5-13) [Ac-GWQPC*PWESWTFC*WDPGGGK-NH2],Rel IC50 (ratio to Ac-Seq000-GGGK-NH2),fibrin [3],1.04
Ac-WQPCPWESWT[Cha]CWDPGGGK-NH2 (disulfide 4-12) [Ac-WQPC*PWESWT-Cha-C*WDPGGGK-NH2],Rel IC50 (ratio to Ac-Seq000-GGGK-NH2),fibrin [3],0.494
Ac-WQPCPWESWT[Phe(4-F)]CWDPGGGK-NH2 (disulfide 4-12) [Ac-WQPC*PWESWT-Ffe4-C*WDPGGGK-NH2],Rel IC50 (ratio to Ac-Seq000-GGGK-NH2),fibrin [3],0.601
"Ac-WQPCPWESWT[Phe(3,4-F2)]CWDPGGGK-NH2 (disulfide 4-12) [Ac-WQPC*PWESWT-F34fe-C*WDPGGGK-NH2]",Rel IC50 (ratio to Ac-Seq000-GGGK-NH2),fibrin [3],0.428
H-GWQPCPWESWTFCWDPGGGK-NH2 (disulfide 5-13) [GWQPC*PWESWTFC*WDPGGGK-NH2],Rel IC50 (ratio to Ac-Seq000-GGGK-NH2),fibrin [3],0.622
Ac-WQPCPWESWT[Phe(4-F)]CWDPGGGK(CF5)-NH2 (disulfide 4-12) [Ac-WQPC*PWESWT-Ffe4-C*WDPGGGK(CF5)-NH2],Kd,fibrin [1],1020 nM
Thf2ca-WQPCPWESWTFCWDPGGGK-NH2 (disulfide 4-12) [Thf2ca-WQPC*PWESWTFC*WDPGGGK-NH2],Rel IC50 (ratio to Ac-Seq000-GGGK-NH2),fibrin [3],0.616
"Ac-WQPCPWESWT[Phe(3,4-F2)]CWDPGGGK(CF5)-NH2 (disulfide 4-12) [Ac-WQPC*PWESWT-F34fe-C*WDPGGGK(CF5)-NH2]",Kd,fibrin [1],700 nM
B2,Rel IC50,fibrin [4],0.75 ratio to Ac-Seq000-GGGK-NH2
